Sequences and labels used below:
T1: EsCas13d, nuclease-dead (Eubacterium siraeum, UniProt B0MS50, R295A;H300A;R849A;H854A)
T1 sequence: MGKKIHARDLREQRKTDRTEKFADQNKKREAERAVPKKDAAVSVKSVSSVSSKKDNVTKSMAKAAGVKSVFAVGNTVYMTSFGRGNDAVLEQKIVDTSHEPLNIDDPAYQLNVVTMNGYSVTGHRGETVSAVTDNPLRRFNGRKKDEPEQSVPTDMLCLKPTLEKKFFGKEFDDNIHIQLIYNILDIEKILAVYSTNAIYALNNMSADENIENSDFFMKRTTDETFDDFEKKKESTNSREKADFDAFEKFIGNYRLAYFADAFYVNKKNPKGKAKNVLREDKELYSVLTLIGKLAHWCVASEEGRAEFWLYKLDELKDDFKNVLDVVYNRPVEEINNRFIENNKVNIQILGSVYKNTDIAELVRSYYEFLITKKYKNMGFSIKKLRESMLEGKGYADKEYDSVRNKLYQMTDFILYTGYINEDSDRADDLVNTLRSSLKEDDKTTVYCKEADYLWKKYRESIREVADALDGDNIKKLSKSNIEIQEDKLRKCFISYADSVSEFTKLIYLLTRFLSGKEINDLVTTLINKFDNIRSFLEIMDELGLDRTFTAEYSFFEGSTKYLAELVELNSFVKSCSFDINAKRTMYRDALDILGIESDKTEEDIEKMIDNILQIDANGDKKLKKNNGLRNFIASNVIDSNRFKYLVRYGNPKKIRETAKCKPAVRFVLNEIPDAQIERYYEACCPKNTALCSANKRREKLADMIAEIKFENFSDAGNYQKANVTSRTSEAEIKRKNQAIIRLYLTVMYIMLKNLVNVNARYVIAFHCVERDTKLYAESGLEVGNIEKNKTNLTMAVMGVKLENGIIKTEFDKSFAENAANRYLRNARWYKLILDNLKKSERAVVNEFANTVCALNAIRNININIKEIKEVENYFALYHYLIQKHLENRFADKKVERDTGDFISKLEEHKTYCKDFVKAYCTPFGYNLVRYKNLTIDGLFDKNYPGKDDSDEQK

B1: target 1 MT 5'PFS GAG 3'PFS CUA (mixed)
RNA 1: CACCCGUGCAAAAAUGCAGGGGUCUAAAACUGAGCGGAUAACCUCUCUAUGG
RNA 2: GGGAAUGGAUCCACAUCUACGAAUUCGAGCCAUAGAGAGGUUAUCCGCUCACUAAGAUCGGAAGAGCACACGU
B2: target 1 MT 5'PFS AAA 3'PFS AUG (mixed)
RNA 1: CACCCGUGCAAAAAUGCAGGGGUCUAAAACUGAGCGGAUAACCUCUCUAUGG
RNA 2: GGGAAUGGAUCCACAUCUACGAAUUCAAACCAUAGAGAGGUUAUCCGCUCAAUGAGAUCGGAAGAGCACACGU
B3: target 1 MT 5'PFS GCA 3'PFS CGA (mixed)
RNA 1: CACCCGUGCAAAAAUGCAGGGGUCUAAAACUGAGCGGAUAACCUCUCUAUGG
RNA 2: GGGAAUGGAUCCACAUCUACGAAUUCGCACCAUAGAGAGGUUAUCCGCUCACGAAGAUCGGAAGAGCACACGU
B4: target 1 insG 3' of 14 (mixed)
RNA 1: CACCCGUGCAAAAAUGCAGGGGUCUAAAACUGAGCGGAUAACCUCUCUAUGG
RNA 2: GGGAAUGGAUCCACAUCUACGAAUUCGUACCAUAGAGAGGGUUAUCCGCUCACCGAGAUCGGAAGAGCACACGU
B5: target 1 MT 5'PFS GCC 3'PFS UCC (mixed)
RNA 1: CACCCGUGCAAAAAUGCAGGGGUCUAAAACUGAGCGGAUAACCUCUCUAUGG
RNA 2: GGGAAUGGAUCCACAUCUACGAAUUCGCCCCAUAGAGAGGUUAUCCGCUCAUCCAGAUCGGAAGAGCACACGU
B6: target 1 MT 5'PFS ACG 3'PFS AGC (mixed)
RNA 1: CACCCGUGCAAAAAUGCAGGGGUCUAAAACUGAGCGGAUAACCUCUCUAUGG
RNA 2: GGGAAUGGAUCCACAUCUACGAAUUCACGCCAUAGAGAGGUUAUCCGCUCAAGCAGAUCGGAAGAGCACACGU
B7: target 1 MT 5'PFS CAG 3'PFS AUC (mixed)
RNA 1: CACCCGUGCAAAAAUGCAGGGGUCUAAAACUGAGCGGAUAACCUCUCUAUGG
RNA 2: GGGAAUGGAUCCACAUCUACGAAUUCCAGCCAUAGAGAGGUUAUCCGCUCAAUCAGAUCGGAAGAGCACACGU
B8: target 1 MT 5'PFS UGC 3'PFS UAC (mixed)
RNA 1: CACCCGUGCAAAAAUGCAGGGGUCUAAAACUGAGCGGAUAACCUCUCUAUGG
RNA 2: GGGAAUGGAUCCACAUCUACGAAUUCUGCCCAUAGAGAGGUUAUCCGCUCAUACAGAUCGGAAGAGCACACGU
B9: target 1 MT 5'PFS GGC 3'PFS ACU (mixed)
RNA 1: CACCCGUGCAAAAAUGCAGGGGUCUAAAACUGAGCGGAUAACCUCUCUAUGG
RNA 2: GGGAAUGGAUCCACAUCUACGAAUUCGGCCCAUAGAGAGGUUAUCCGCUCAACUAGAUCGGAAGAGCACACGU
B10: target 1 insU 3' of 6,insA 3' of 4 (mixed)
RNA 1: CACCCGUGCAAAAAUGCAGGGGUCUAAAACUGAGCGGAUAACCUCUCUAUGG
RNA 2: GGGAAUGGAUCCACAUCUACGAAUUCGUACCAUAGAGAGGUUAUCCUGCAUCACCGAGAUCGGAAGAGCACACGU
B11: target 1 MT 5'PFS ACA 3'PFS AAC (mixed)
RNA 1: CACCCGUGCAAAAAUGCAGGGGUCUAAAACUGAGCGGAUAACCUCUCUAUGG
RNA 2: GGGAAUGGAUCCACAUCUACGAAUUCACACCAUAGAGAGGUUAUCCGCUCAAACAGAUCGGAAGAGCACACGU
B12: target 1 MT 5'PFS GCC 3'PFS UCG (mixed)
RNA 1: CACCCGUGCAAAAAUGCAGGGGUCUAAAACUGAGCGGAUAACCUCUCUAUGG
RNA 2: GGGAAUGGAUCCACAUCUACGAAUUCGCCCCAUAGAGAGGUUAUCCGCUCAUCGAGAUCGGAAGAGCACACGU
B13: target 1 MT 5'PFS AUA 3'PFS UUC (mixed)
RNA 1: CACCCGUGCAAAAAUGCAGGGGUCUAAAACUGAGCGGAUAACCUCUCUAUGG
RNA 2: GGGAAUGGAUCCACAUCUACGAAUUCAUACCAUAGAGAGGUUAUCCGCUCAUUCAGAUCGGAAGAGCACACGU
B14: target 1 MT 5'PFS CAG 3'PFS AUA (mixed)
RNA 1: CACCCGUGCAAAAAUGCAGGGGUCUAAAACUGAGCGGAUAACCUCUCUAUGG
RNA 2: GGGAAUGGAUCCACAUCUACGAAUUCCAGCCAUAGAGAGGUUAUCCGCUCAAUAAGAUCGGAAGAGCACACGU
B15: target 1 MT 5'PFS GAG 3'PFS UUU (mixed)
RNA 1: CACCCGUGCAAAAAUGCAGGGGUCUAAAACUGAGCGGAUAACCUCUCUAUGG
RNA 2: GGGAAUGGAUCCACAUCUACGAAUUCGAGCCAUAGAGAGGUUAUCCGCUCAUUUAGAUCGGAAGAGCACACGU
B16: target 1 MT 5'PFS GCA 3'PFS CGG (mixed)
RNA 1: CACCCGUGCAAAAAUGCAGGGGUCUAAAACUGAGCGGAUAACCUCUCUAUGG
RNA 2: GGGAAUGGAUCCACAUCUACGAAUUCGCACCAUAGAGAGGUUAUCCGCUCACGGAGAUCGGAAGAGCACACGU
B17: target 1 MT 5'PFS AAA 3'PFS AUU (mixed)
RNA 1: CACCCGUGCAAAAAUGCAGGGGUCUAAAACUGAGCGGAUAACCUCUCUAUGG
RNA 2: GGGAAUGGAUCCACAUCUACGAAUUCAAACCAUAGAGAGGUUAUCCGCUCAAUUAGAUCGGAAGAGCACACGU
B18: target 1 MT 5'PFS AUA 3'PFS UUG (mixed)
RNA 1: CACCCGUGCAAAAAUGCAGGGGUCUAAAACUGAGCGGAUAACCUCUCUAUGG
RNA 2: GGGAAUGGAUCCACAUCUACGAAUUCAUACCAUAGAGAGGUUAUCCGCUCAUUGAGAUCGGAAGAGCACACGU
B19: target 1 MT 5'PFS ACA 3'PFS AAA (mixed)
RNA 1: CACCCGUGCAAAAAUGCAGGGGUCUAAAACUGAGCGGAUAACCUCUCUAUGG
RNA 2: GGGAAUGGAUCCACAUCUACGAAUUCACACCAUAGAGAGGUUAUCCGCUCAAAAAGAUCGGAAGAGCACACGU
B20: target 1 MT 5'PFS GCC 3'PFS UCU (mixed)
RNA 1: CACCCGUGCAAAAAUGCAGGGGUCUAAAACUGAGCGGAUAACCUCUCUAUGG
RNA 2: GGGAAUGGAUCCACAUCUACGAAUUCGCCCCAUAGAGAGGUUAUCCGCUCAUCUAGAUCGGAAGAGCACACGU
B21: target 1 MT 5'PFS AAC 3'PFS CUA (mixed)
RNA 1: CACCCGUGCAAAAAUGCAGGGGUCUAAAACUGAGCGGAUAACCUCUCUAUGG
RNA 2: GGGAAUGGAUCCACAUCUACGAAUUCAACCCAUAGAGAGGUUAUCCGCUCACUAAGAUCGGAAGAGCACACGU
B22: target 1 MT 5'PFS GGA 3'PFS UUG (mixed)
RNA 1: CACCCGUGCAAAAAUGCAGGGGUCUAAAACUGAGCGGAUAACCUCUCUAUGG
RNA 2: GGGAAUGGAUCCACAUCUACGAAUUCGGACCAUAGAGAGGUUAUCCGCUCAUUGAGAUCGGAAGAGCACACGU
B23: target 1 MT 5'PFS GGA 3'PFS UUC (mixed)
RNA 1: CACCCGUGCAAAAAUGCAGGGGUCUAAAACUGAGCGGAUAACCUCUCUAUGG
RNA 2: GGGAAUGGAUCCACAUCUACGAAUUCGGACCAUAGAGAGGUUAUCCGCUCAUUCAGAUCGGAAGAGCACACGU
B24: target 1 MT 5'PFS GAG 3'PFS UUG (mixed)
RNA 1: CACCCGUGCAAAAAUGCAGGGGUCUAAAACUGAGCGGAUAACCUCUCUAUGG
RNA 2: GGGAAUGGAUCCACAUCUACGAAUUCGAGCCAUAGAGAGGUUAUCCGCUCAUUGAGAUCGGAAGAGCACACGU
B25: target 1 MT 5'PFS GCC 3'PFS UCA (mixed)
RNA 1: CACCCGUGCAAAAAUGCAGGGGUCUAAAACUGAGCGGAUAACCUCUCUAUGG
RNA 2: GGGAAUGGAUCCACAUCUACGAAUUCGCCCCAUAGAGAGGUUAUCCGCUCAUCAAGAUCGGAAGAGCACACGU
B26: target 1 MT 5'PFS GGC 3'PFS ACC (mixed)
RNA 1: CACCCGUGCAAAAAUGCAGGGGUCUAAAACUGAGCGGAUAACCUCUCUAUGG
RNA 2: GGGAAUGGAUCCACAUCUACGAAUUCGGCCCAUAGAGAGGUUAUCCGCUCAACCAGAUCGGAAGAGCACACGU
B27: target 1 insG 3' of 10,insU 3' of 4 (mixed)
RNA 1: CACCCGUGCAAAAAUGCAGGGGUCUAAAACUGAGCGGAUAACCUCUCUAUGG
RNA 2: GGGAAUGGAUCCACAUCUACGAAUUCGUACCAUAGAGAGGUUGAUCCGCUUCACCGAGAUCGGAAGAGCACACGU

This series has as its target T1, EsCas13d, nuclease-dead. Nature of the series: crRNA (strand 1, pre-loaded); Mg2+; 40 mM Tris-HCl pH 7.5, 150 mM NaCl, 6 mM MgCl2, 1 mM DTT, 0.1% Tween-20, 0.2 mg/ml BSA; 25 C; 10 min per concentration, then washed. Conditions: tags: His6-TwinStrep-SUMO cleaved; N-terminal SNAP kept (SNAP-Surface 488); label: 3' end held by stalled T7 RNA polymerase.
On to B1, for which the Kd (commonly the constant that tells how readily two partners part at equilibrium) amounted to 40 ± 15 nM. The value for B2 was 28.5 ± 8 nM; that for B3 was 41 ± 11 nM. The value for B4 was 9.4 ± 0.33 nM; that for B5 was 12.6 ± 4.75 nM; that for B6 was around 31 nM. The same measure for B7: around 17.5 nM.

On to B8, for which binding was put at a Kd of 32 ± 10.5 nM.

B9 yielded a dissociation constant (Kd) of 14.4 ± 1.55 nM. The molecule B10 gave a Kd of 7.9 ± 0.6 nM. The same measure for B11: 15.3 ± 4.85 nM; for B12: 15.3 ± 3 nM. Regarding B13, the Kd was 16.5 ± 5.5 nM. B14 registered an equilibrium dissociation constant (Kd) of 29 ± 13.5 nM. The value for B15 was 23 ± 5.5 nM; that for B16 was 25 ± 6.5 nM; that for B17 was 28 ± 9.5 nM. With B18, the dissociation constant (Kd) was 10.8 ± 2.45 nM. The value for B19 was around 49 nM. Molecule B20 showed an equilibrium dissociation constant (Kd) of 12.2 ± 2.85 nM. B21: the equilibrium dissociation constant (Kd) stood at 39 ± 19.5 nM.

As for B22, the Kd came out at 8.9 ± 0.8 nM.

B23 came in with a Kd of 13.3 ± 2.5 nM. The Kd values of the last two molecules are within 1.5-fold of each other.

Molecule B24 yielded an equilibrium dissociation constant (Kd) of 9.9 ± 1.85 nM. The same measure for B25: 27.5 ± 10 nM; for B26: 24.3 ± 5.25 nM. The value for B27 was 32 ± 7 nM.
